104 substances from the supplement of paper PMC12042874 can be followed below.

± gives the uncertainty stated by the source.

The data set can be described thus: amyloid nucleation score (Sup35N fusion, yeast selection) (log enrichment); library NNK2; higher = more nucleation; inactive = no reads after selection. An outline of the steps: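 On medium lacking adenine and uracil, psi-negative yeast expressing peptides of 20 random codons fused to Sup35N were grown 7 days at 30°C after a 24-hour induction with 100 μM copper sulfate. Illumina sequencing of input and output plasmid inserts gave the reads, and sequences under 100 input reads were excluded. The nucleation score is the DiMSum log enrichment of output over input reads, centred on the mode score of non-aggregating sequences.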
For the substance CLPFYCTFGSVVARAGVYH, the amyloid nucleation score entry is “inactive”.
In turn, CLQCQLIRRGLTKMNMGFAS returned an amyloid nucleation score of -0.023 ± 0.45.
CLRFC gave an amyloid nucleation score of -0.453 ± 1.1.
In turn, CLSGLLIWAHHSLKLDVLIG came in with an amyloid nucleation score of 0.366 ± 0.64.
Then CLVWLDI, with -1.11 ± 0.55.
Then CLYCGDLLLRFEYKCRGVNQ, with 5.15 ± 0.092; and CLYRRLYKLALNMEIIILRY, with “inactive”; and CMFSLNGAYSMPHVKMSMCM, with -0.786 ± 0.46.
The result for CMKGVNSLDIASVSQFNLNR reads 2.28 ± 0.13; that for CMSNAKCKGVDFAAGKLLSC, -0.004 ± 0.49; that for CMSRFGRCNFVHDTWMGFTR, 2.93 ± 0.1.
In the case of CMWWIHDPGRDRLKELKVAR, the amyloid nucleation score came out at 0.452 ± 0.36.
The result for CNCQMGDVLEGLGDVGLNNF reads -1.65 ± 0.62; that for CNEDFLSQLVVLHFKEYGDN, “inactive”; that for CNERFERLFISVTGFVMRRH, -0.358 ± 0.39.
The result for CNLSVVYLLDMAD reads 3.99 ± 0.044; that for CNMLRVNHRNLVLTDMCNG, 0.204 ± 0.8.
For CNNCYALYHDGV, the amyloid nucleation score was -0.396 ± 0.39.
As for CNTLLTFNYNAYVIEVM, the amyloid nucleation score is 0.839 ± 0.17.
As to CNVHWGRL, the amyloid nucleation score worked out at 0.089 ± 0.8.
In the case of CNYKYSDLVFHCLPPGRGYN, the amyloid nucleation score entry is “inactive”.
Then CPCYCLTSFACLGNSVPTWR, with 10.15 ± 0.043; and CPMCTFLCCLAFY, with 8.626 ± 0.04; and CQCSVSVGNTDSHNLPKVYV, with -0.221 ± 1.1.
Take CQMYYFYFNLLMWDMA: the amyloid nucleation score entry is “inactive”.
As for CQPNLWARVCLVWCYW, the amyloid nucleation score was 3 ± 0.094.
The result for CRIGA reads -0.252 ± 0.28.
Then CRLPQQKPHEMPTLDDFARS, with 0.553 ± 0.44; and CRNCLLGHLRLVTHHVRILY, with “inactive”; and CRSCVVSYCGCEYLESLGGK, with 0.525 ± 0.64.
Consider CRVNRGRGNSTTLYMMDFGY, for which the amyloid nucleation score is 2.7 ± 0.088.
The result for CRWISTTLIFARCELFRLAV reads 0.567 ± 0.38; that for CSCEVALIIK, “inactive”; that for CSCGYMKANR, -0.721 ± 1.
Then CSCHKSSCLRTTFCLEHSSG, with 6.866 ± 0.062; and CSDRSICFANSYFEF, with -0.101 ± 0.63.
Then CSHPFDYVQTILRTVTLFLI, with -0.114 ± 0.63; and CSINLRAYPVLSRGATVACK, with 0.755 ± 0.55; and CSLFYRSS, with 4.06 ± 0.056.
CSLQYYSLRNDRDRVTELRR gave an amyloid nucleation score of 0.475 ± 0.51.
Substance CSLTSFAGNSIYFRWRANT registered an amyloid nucleation score of 1.18 ± 0.14.
On to CSMKYGCRVYVRNPSLSECD, for which the amyloid nucleation score was found to be 0.547 ± 0.45.
For CSNYQRYTILVYPTRSYGCL, the amyloid nucleation score was found to be 0.558 ± 0.6.
The result for CSRGP reads 0.534 ± 0.64; that for CSTTWGDTIAGHEAGLVSLS, 1.02 ± 0.37.
With CTIRLECLLA, the amyloid nucleation score was -0.428 ± 0.46.
Then CTLRGGYISWVQVYE, with 2.1 ± 0.1; and CTPLGFCSKNRLGLQEDGVK, with -0.788 ± 0.76; and CTSHWAYEDEDFFIDRLYFT, with -0.796 ± 0.3.
The result for CTTSWKMSCKFALGN reads 4.04 ± 0.07; that for CTWDFNDHFMLVQNNDEQLW, 0.087 ± 0.79; that for CVDSKWLYFGRWSTQVIDI, -0.196 ± 1.
Regarding CVGGVSNCMRYGKTFRDESY, the amyloid nucleation score is -0.438 ± 0.27.
Substance CVMFTLSCVNFDCDCSCRWK gave an amyloid nucleation score of 6.31 ± 0.084.
For CVMIESLKVFISPWLASRIR, the amyloid nucleation score is -0.291 ± 0.65.
The result for CVMNF reads -0.586 ± 0.42.
CVNITYI had an amyloid nucleation score of 4.625 ± 0.031.
Then CVRCTFCIVSVICFSIYLSE, with -0.448 ± 0.55.
The result for CVSVAFNRNISWW reads -0.021 ± 0.34; that for CVTRMDYTDVSDMHLM, 0.307 ± 0.56; that for CVWHVF, “inactive”.
Then CVYEIPKM, with 3.09 ± 0.048.
The substance CWGVVGSAAGWYSGTK gave an amyloid nucleation score of 1.46 ± 0.21.
Turning to CWRVDSFVLGNHNGIGVCFV, the amyloid nucleation score is -0.918 ± 0.41.
Substance CYAIMNGVSFLDLIGGARET had an amyloid nucleation score of 5.85 ± 0.077.
Then CYFNARSDSVNVYVV, with -0.029 ± 1.1.
The result for CYGVFLVVSWDHGGDQIGVV reads -0.482 ± 0.48; that for CYHVTLMR, 0.718 ± 0.26.
Then CYIRSVFSQWLTACLVNWFM, with -1.86 ± 1.1.
CYISFWARRFDEYLSLLSFA registered an amyloid nucleation score of -0.343 ± 0.42.
Then CYLMKSFMNLSDRNVFGNVT, with -0.295 ± 0.32; and CYRHSERYRTSSLLSWERGP, with 0.783 ± 0.57; and CYWWDWVLY, with -0.032 ± 0.45.
Then DAFWLWSFIWACVLCFTKHR, with -0.549 ± 0.45; and DAFYDS, with -2.05 ± 0.75; and DAKRVQIYF, with 1.02 ± 0.68.
Then DANLQIH, with -0.774 ± 0.45; and DARSDVF, with “inactive”.
In turn, DAVFGTCSLFCRTCAKASFG displayed an amyloid nucleation score of 1.58 ± 0.25.
In turn, DCCRWSVLVVIVLAARSSMS displayed an amyloid nucleation score of 3.17 ± 0.099.
In turn, DCIHCSRTNAADWMGYVFGY came in with an amyloid nucleation score of 4.82 ± 0.085.
The result for DCLYGRFRHRHG reads 5.723 ± 0.035.
Consider DCMLNGLRWEMMLYKLDCFT, for which the amyloid nucleation score was found to be 0.189 ± 0.64.
DCMTMINLICNGMPAICRMT yielded an amyloid nucleation score of 0.445 ± 0.18.
DCQVSTLAYWSRVKMFQYQK returned an amyloid nucleation score of 3.71 ± 0.077.
Then DCSDPCGSAPKDLSTKTVRC, with 1.61 ± 0.26; and DDCKQRTHNDYMD, with 0.175 ± 0.37; and DDSHLNCDNRIVISMLRNGN, with 0.528 ± 0.32.
Substance DEMARVYIHY registered an amyloid nucleation score of 0.183 ± 0.74.
Then DFDVEA, with -0.176 ± 1.1; and DFIMFLAGPNSVNYNVVLYF, with 7.437 ± 0.055; and DFINIPSVFIIYMK, with 1.73 ± 0.13.
Then DFKDEGYQRRV, with -0.37 ± 0.65; and DFLSGTMVDETSDKGISLLV, with 0.605 ± 0.47; and DFLVYCGLLEQLWLLSDAKC, with -0.356 ± 1.1.
DFMRDFWKDSDNQEVFLLPI showed an amyloid nucleation score of -0.885 ± 0.44.
Then DFSMIGSEKVAPGKNPDASL, with 0.22 ± 0.57.
DGCLARGYNKGVHDGVVEYL: the amyloid nucleation score is -0.088 ± 1.1.
Then DGDNNCMCS, with 0.404 ± 0.48; and DGHVELCISAKDYD, with -0.249 ± 0.53; and DGLARAYAARM, with 1.53 ± 0.29.
The substance DGPNYILQVFCCMMVNVCGC had an amyloid nucleation score of 7.609 ± 0.061.
Then DGPWYYTVRAEIQPM, with 3.78 ± 0.079.
For DGRKALI, the amyloid nucleation score worked out at 1.87 ± 0.35.
